Results reported in US5196309A, “Characterization of platelet aggregation disorders” (The Scripps Research Institute, priority 1990, dated 1993).
Where no end group is shown, it is not given here.

Experiments:
[1] = target: T1, GPIIb-IIIa on normal platelets (Homo sapiens, UniProt P05106+P08514); assay: Flow cytometry of platelet surface GPIIb-IIIa, normal (control) platelets; format: binding
T1 construct: Analysis of Platelet Surface GPIIb-IIIa by Flow Cytometry; from tissue; host or cells: platelets in platelet-rich plasma from venous blood of controls
Protocol: (§1) Samples were incubated without stirring in a total volume of 50 μL for 15 minutes at room temperature with agonists and peptides as indicated. Samples were then diluted to 0.5 mL with Tyrode's buffer and analyzed on a FACStar flow cytometer (Bectin-Dickinson Immunocytometry Systems, Mountain View, Calif.). Light scatter and fluorescence signals were acquired at logarithmic gain, and 10,000 platelets in each sample were analyzed. Results are expressed as mean platelet fluorescence intensity in arbitrary fluorescence units or as histograms of log platelet fluorescence intensity in arbitrary units on the abscissa and platelet number on the ordinate.

[2] = target: T2, GPIIb-IIIa on Cam platelets (Homo sapiens, UniProt P05106+P08514, D145Y); assay: Flow cytometry of platelet surface GPIIb-IIIa, Cam variant thrombasthenia platelets; format: binding
T2 construct: from tissue; host or cells: platelets in platelet-rich plasma from venous blood of two Cam variant siblings
Source text: FIGS. 2A through 2H show a flow cytometric analysis of the deficit in Cam variant of thrombasthenia. Shown are histograms with the log of fluorescence intensity on the abscissa and cell number on the ordinate. The reporting antibody is indicated in the left hand column. Cam platelets are shown in FIGS. 2A, 2C, 2E and 2G and the normal control in FIGS. 2B, 2D, 2F and 2H. Each column of figures contains a legend indicating the added agonist, peptide, or antibody. […] Similar data were obtained with other antibodies to GPIIb-IIIa (7E3, 10E5, 4F10) and an antibody to GPIIb (Tab). The Cam variant data shown are representative of determinations on two affected male siblings with identical results.
Based on the model depicted in FIG. 1, abnormal platelet aggregation can arise from a defect in the activation of platelet fibrinogen receptors, a defect in fibrinogen binding per se, or a defect in the postoccupancy events required for optimal aggregation. The potential usefulness of this model was tested by studying two patients with persistent and severe defects in platelet aggregation. To quantitate fibrinogen receptor activation and ligand binding, a fluorescein-labeled MoAb (PAC1) which specifically recognizes the activated form of GPIIb-IIIa, was employed (Shattil et al., J. Biol. Chem., 260:11107 (1985)). Antibody binding was measured in small (5 μL) samples of platelet rich plasma by flow cytometry.
Platelet rich plasma was obtained by taking venous blood from patients and controls who had not ingested medications for at least 10 days, anticoagulating with 1/10 volume of 3.8% sodium citrate, and sedimentating red and white blood cells at 180 g for 20 minutes at room temperature. Immediately thereafter, 5-μL aliquots of platelet-rich plasma were added to polypropylene tubes containing a fluorescein isothiocyanate-conjugated monoclonal antibody (10^-9 to 10^-6 mol/L) in Tyrode's buffer (1% bovine serum albumin, 2 mmol/L MgCl2, 137.5 mmol/L NaCl, 12 mmol/L NaHCO3, 2.6 mmol/L KCl, pH 7.4). Samples were incubated without stirring in a total volume of 50 μL for 15 minutes at room temperature with agonists and peptides as indicated. Samples were then diluted to 0.5 mL with Tyrode's buffer and analyzed on a FACStar flow cytometer (Bectin-Dickinson Immunocytometry Systems, Mountain View, Calif.). Light scatter and fluorescence signals were acquired at logarithmic gain, and 10,000 platelets in each sample were analyzed. Results are expressed as mean platelet fluorescence intensity in arbitrary fluorescence units or as histograms of log platelet fluorescence intensity in arbitrary units on the abscissa and platelet number on the ordinate.

normal GPIIb-IIIa = assay: KYGRGDS affinity chromatography of surface-labeled platelet lysate, normal platelets; format: binding, human
Protocol: (§2) To directly examine the ligand binding function of Cam GPIIb-IIIa, extracts of ^125 I surface-labeledplatelets were subjected to affinity chromatography using an immobilized RGD peptide.
(§3) Platelets were isolated from acid-citrate dextrose anticoagulated human blood by differential centrifugation followed by gel filtration on Sepharose 2B (Ginsberg et al., Blood, 69:58 (1987)). Lysates of surface-labeled platelets were analyzed by KYGRGDS affinity chromatography as described by Lam et al., J. Biol. Chem., 262:947 (1987). Briefly, intact platelets were radioiodinated by the lactoperoxidase-H2 O2 method then resuspended to 2×10^8 platelets/mL and solubilized in lysis buffer containing 10 mmol/L N-2-hydroxyethylpiperazine-N'-2-ethanesulfonic acid (HEPES), pH 7.5, 0.15 mol/L NaCl, 1 mmol/L CaCl2, 1 mmol/L MgCl2, 0.1 mmol/L leupeptin, 1 mmol/L phenylmethanesulfonylfluoride (PMSF), 10 mmol/L N-ethylmaleimide, and 50 mmol/L octylglucoside. […] Under these conditions approximately 10% of normal GPIIb-IIIa is bound and eluted.
(§4) The GPIIb-IIIa content in the starting material and in the column fractions was quantitated by use of a polyclonal anti-GPIIb-IIIa antibody in an ELISA assay. The control extract contained 332 μg; the Cam individual contained 240 μg in the starting extract. The eluted fractions from the control extract contained 20 μg GPIIb-IIIa. […]

Cam GPIIb-IIIa = assay: KYGRGDS affinity chromatography of surface-labeled platelet lysate, Cam platelets; format: binding, human; conditions: Cam extract, 240 μg GPIIb-IIIa in starting extract; eluted with GRGDSP
Protocol: as §2, §3, §4

[3] = system: GPIIb-IIIa on MPD platelets; assay: Flow cytometry of platelet surface GPIIb-IIIa, myelofibrosis (MPD) patient platelets; format: binding, human
Protocol: The disclosing antibody is indicated in the left hand column. In each column, the legend indicates the added agonist or peptide. Agonist and peptide concentrations were identical to those in FIGS. 2A-2H. Phorbol myristate acetate (PMA) was present in a final concentration of 50 nmol/L. Anti-TSP refers to the binding of a MoAb against thrombospondin.
as §1

platelets [4] = conditions: cited from earlier work
GPIIb-IIIa = conditions: cited from earlier work
platelets [5] = assay: 125I-fibrinogen binding to platelets; conditions: 10 uM ADP; 37 degrees, 30 minutes
Protocol: Fibrinogen was isolated and labelled with ^125 I by standard methods as described by Marguerie et al., J. Biol. Chem., 255:154-161 (1980) to form ^125 I-Fg. Thereafter, the binding of ^125 I-Fg to platelets was assayed as described previously. Marguerie et al., J. Biol. Chem., 255:154-161 (1980). Binding was initiated by the admixture of a million resting platelets in the presence or absence of 10 micromolar adenosine diphosphate (ADP) to radiolabelled fibrinogen at varying concentrations from 0.01 to 1 nanomolar (nM) and incubation at 37 degrees for 30 minutes. Bound fibrinogen was separated from free fibrinogen by centrifugation of the platelet-fibrinogen admixture through 0.3 ml of 20% sucrose and the amount of radiolabelled fibrinogen associated with the cell pellet determined by gamma detection.

With LGGAKQAGDV [gamma(402-411)] the “anti-LIBS1 binding, fluorescence” value ([1]; control platelets with gamma(402-411) 400 μmol/L) was 201 fluorescence U, the “anti-LIBS1 binding, fluorescence” value ([2]; Cam platelets with gamma(402-411) 400 μmol/L) was 31 U and the “Change in anti-LIBS1 binding caused by gamma(402-411)” value ([2]; Cam platelets, gamma(402-411) 400 μmol/L) was “failed to increase”.

For Gly-Arg-Gly-Asp-Ser-Pro [GRGDSP], the “Fluorescence Increase (LIBS-1 expression, anti-LIBS 1 binding), Normal” value (from here on “Fluorescence Increase … Normal”) ([1]; [GRGDSP] 2 μM, normal platelets) was 20, the “Fluorescence Increase … Normal” value ([1]; [GRGDSP] 4 μM, normal platelets) was 31 and the “Fluorescence Increase … Normal” value ([1]; [GRGDSP] 10 μM, normal platelets) was 48. The “Fluorescence Increase … Normal” value ([1]; [GRGDSP] 40 μM, normal platelets) was 70, the “Fluorescence Increase … Normal” value ([1]; [GRGDSP] 200 μM, normal platelets) was 106 and the “PMI-1 binding, mean fluorescence intensity” value ([1]; normal platelets treated with 200 μmol/L GRGDSP) was 151 fluorescence units. The “anti-LIBS1 binding, mean fluorescence” value ([1]; normal platelets with GRGDSP 200 μmol/L) was 205 U, the “Increase in PMI-1 binding” value ([1]; normal platelets, 200 μmol/L GRGDSP) was 2.5 fold and the “Increase in anti-LIBS1 binding caused by peptide” value ([1]; normal platelets, GRGDSP 200 μmol/L) was “fourfold increase”. For the same compound, the “PMI-1 binding, mean fluorescence intensity” value ([2]; Cam platelets treated with 200 μmol/L GRGDSP) was 107 fluorescence units, the “anti-LIBS1 binding, mean fluorescence” value ([2]; Cam platelets with GRGDSP 200 μmol/L) was 25 U and the “Change in PMI-1 binding in response to GRGDSP” value ([2]; Cam platelets, 200 μmol/L GRGDSP) was “no increase”. For the same compound, the “Change in anti-LIBS1 binding caused by GRGDSP” value ([2]; Cam platelets, GRGDSP 200 μmol/L) was “no increase”, the “Fluorescence Increase (LIBS-1 expression, anti-LIBS 1 binding), Cam” value (“Fluorescence Increase … Cam” for short) ([2]; [GRGDSP] 2 μM, Cam platelets) was 3 and the “Fluorescence Increase … Cam” value ([2]; [GRGDSP] 4 μM, Cam platelets) was 3. The “Fluorescence Increase … Cam” value ([2]; [GRGDSP] 10 μM, Cam platelets) was 3, the “Fluorescence Increase … Cam” value ([2]; [GRGDSP] 40 μM, Cam platelets) was 3 and the “Fluorescence Increase … Cam” value ([2]; [GRGDSP] 200 μM, Cam platelets) was 6.

For KYGRGDS [Lys-Tyr-Gly-Arg-Gly-Asp-Ser], the “GPIIb-IIIa in eluted fractions (ELISA)” value (normal GPIIb-IIIa; control extract, 332 μg GPIIb-IIIa in starting extract, eluted with GRGDSP) was 20 µg, the “Share of normal GPIIb-IIIa bound to KYGRGDS-Sepharose and eluted” value (normal GPIIb-IIIa; lysate 12 hours at 4° C., eluted with 1 mmol/L GRGDSP) was “approximately 10%” and the “GPIIb-IIIa in eluted fractions (ELISA)” value (Cam GPIIb-IIIa) was 2.6 µg.

With PAC 1 the “PAC1 fluorescence of PMA-activated Cam platelets” value ([2]; 50 nmol/L phorbol myristate acetate (PMA)) was “no increase”, the “PAC1 binding to ADP-activated Cam platelets” value ([2]; ADP 100 μmol/L) was “complete lack of binding” and the “Expression of PAC1 binding sites on stimulated MPD platelets” value ([3]; 50 μmol/L epinephrine (not shown)) was “did not express PAC1 binding sites”. The “Expression of PAC1 binding sites on stimulated MPD platelets” value ([3]; 10 μm ADP) was “did not express PAC1 binding sites”, the “PAC1 binding to MPD platelets in response to PMA” value ([3]; PMA 50 nmol/L) was “bound” and the “Fibrinogen Binding (effect of antibody on fibrinogen binding to platelets)” value (platelets [4]) was “Decrease”. The “Effect of Peptides (RGD or fibrinogen gamma chain C-terminal peptides) on antibody binding” value (GPIIb-IIIa) was “Decrease”.

In the case of `Nc1ncnc2c1ncn2[C@@H]1O[C@H](COP(=O)(O)OP(=O)(O)O)[C@@H](O)[C@H]1O` [ADP, adenosine diphosphate], the “Increase in number of 125I-Fg molecules bound to platelets” value (platelets [5]) is reported as “at least a three fold increase”.
